From PMC8239462 (2021)

Assays:
[1] = target: LRP1 Cluster IV (commercial) (Homo sapiens); assay: SPR
LRP1 CR.7 singlet [2] = target: T1, LRP1 CR.7 singlet (human, UniProt Q07954 1013-1053); assay: SPR; CR.7 expressed with RAP (RAP+)
LRP1 CR.7 singlet [3] = target: T1, LRP1 CR.7 singlet; assay: SPR; CR.7 expressed without RAP (RAP-)
[4] = target: T2, vLDLR CR cluster (8 CRs), recombinant, secreted from Sf9 cells (human, UniProt P98155 28-355); assay: SPR; vLDLR cluster expressed without RAP (RAP-)
[5] = target: T2, vLDLR CR cluster (8 CRs), recombinant, …; assay: SPR; vLDLR cluster expressed with RAP (RAP+)

T1 sequence (Q07954 1013-1053): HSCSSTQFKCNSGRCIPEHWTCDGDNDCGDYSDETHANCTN
Chain of LRP1 Cluster IV (commercial) (Homo sapiens) (chain, as listed by the source): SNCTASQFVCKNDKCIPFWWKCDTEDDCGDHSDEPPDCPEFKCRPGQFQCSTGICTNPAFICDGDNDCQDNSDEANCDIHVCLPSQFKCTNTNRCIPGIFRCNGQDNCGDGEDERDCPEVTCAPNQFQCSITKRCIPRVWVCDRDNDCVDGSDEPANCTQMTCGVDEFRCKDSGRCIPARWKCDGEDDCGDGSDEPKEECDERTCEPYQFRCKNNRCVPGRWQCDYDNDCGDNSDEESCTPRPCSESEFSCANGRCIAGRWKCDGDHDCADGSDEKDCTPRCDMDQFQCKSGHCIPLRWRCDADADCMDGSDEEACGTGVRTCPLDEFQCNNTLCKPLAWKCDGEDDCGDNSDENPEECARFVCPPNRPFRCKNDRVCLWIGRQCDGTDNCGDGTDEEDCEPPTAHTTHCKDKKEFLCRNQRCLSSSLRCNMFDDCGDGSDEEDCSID

B1: RAP (commercial; R&D, 4296-LR) (natural protein)
chain: YSREKNQPKPSPKRESGEEFRMEKLNQLWEKAQRLHLPPVRLAELHADLKIQERDELAWKKLKLDGLDEDGEKEARLIRNLNVILAKYGLDGKKDARQVTSNSLSGTQEDGLDDPRLEKLWHKAKTSGKFSGEELDKLWREFLHHKEKVHEYNVLLETLSRTEEIHENVISPSDLSDIKGSVLHSRHTELKEKLRSINQGLDRLRRVSHQGYSTEAEFEEPRVIDLWDLAQSANLTDKELEAFREELKHFEAKIEKHNHYQKQLEIAHEKLRHAESVGDGERVSRSREKHALLEGRTKELGYTVKKHLQDLSGRISRARHNEL
modifications: Limits by convention: cluster IV = CR.21-31 (LDL-receptor class A repeats 21-31); vendor limits are not printed. Likely supplied as an Fc chimera, as for commercial cluster II (Fc omitted; may be a dimer). Ca2+-bound, three disulfides per CR.
B1 showed a Kd [1] of ~2.5 nM.

B2: RAP (commercial; R&D, 4296-LR) (natural protein)
chain: YSREKNQPKPSPKRESGEEFRMEKLNQLWEKAQRLHLPPVRLAELHADLKIQERDELAWKKLKLDGLDEDGEKEARLIRNLNVILAKYGLDGKKDARQVTSNSLSGTQEDGLDDPRLEKLWHKAKTSGKFSGEELDKLWREFLHHKEKVHEYNVLLETLSRTEEIHENVISPSDLSDIKGSVLHSRHTELKEKLRSINQGLDRLRRVSHQGYSTEAEFEEPRVIDLWDLAQSANLTDKELEAFREELKHFEAKIEKHNHYQKQLEIAHEKLRHAESVGDGERVSRSREKHALLEGRTKELGYTVKKHLQDLSGRISRARHNEL
For B2, the Kd (LRP1 CR.7 singlet [2]) was 37.6 nM, the Kd (LRP1 CR.7 singlet [3]) was 67.9 nM and the Kd [4] was ~1.7 nM. The Kd [5] was ~1.6 nM.
